Results published in US20170314054A1 (ROCHE SEQUENCING SOLUTIONS, published 2017).
No end group written: not given here.

Key:
[1] = target: T1, microbial transglutaminase from Streptomyces mobaraensis (MTG) (Streptomyces mobaraensis, UniProt P81453 77-407); assay: cell-based or functional assay
T1 sequence (looked up): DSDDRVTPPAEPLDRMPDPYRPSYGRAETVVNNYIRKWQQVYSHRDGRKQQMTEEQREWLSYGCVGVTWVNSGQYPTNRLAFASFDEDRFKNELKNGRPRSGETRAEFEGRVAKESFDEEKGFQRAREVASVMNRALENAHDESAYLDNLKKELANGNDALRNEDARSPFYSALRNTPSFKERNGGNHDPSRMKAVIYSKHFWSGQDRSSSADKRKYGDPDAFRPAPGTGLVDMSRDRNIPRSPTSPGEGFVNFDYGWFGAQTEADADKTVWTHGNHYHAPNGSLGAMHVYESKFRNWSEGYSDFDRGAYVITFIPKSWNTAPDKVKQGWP

[2] = target: T2, Z-GGGARSKLGGGG (SEQ ID NO: 80)
T2 chain: GGGARSKLGGGG

[3] = target: T3, Z-GGGDEKPDGGGG (SEQ ID NO: 81)
T3 chain: GGGDEKPDGGGG

[4] = target: T4, Z-GGGDYALQGGGG (SEQ ID NO: 86)
T4 chain: GGGDYALQGGGG

Binder: SKLSK (not fully specified) [SKLSK (SEQ ID NO: 71)]
- A (array MTG labeling signal with Z-Gln-Gly-CAD-biotin) [1]: 13.3

Binder: LSKLK (also: flanked by G:S (3:1) linkers on peptide array) [LSKLK (SEQ ID NO: 75)]
- A (array MTG labeling signal with Z-Gln-Gly-CAD-biotin) [1]: 13.3

Binder: KTKYK (also: flanked by G:S (3:1) linkers on peptide array) [KTKYK (SEQ ID NO: 74)]
- A (array MTG labeling signal with Z-Gln-Gly-CAD-biotin) [1]: 13.3

Binder: GRSKL (also: flanked by G:S (3:1) linkers on peptide array) [GRSKL (SEQ ID NO: 69)]
- A (array MTG labeling signal with Z-Gln-Gly-CAD-biotin) [1]: 13.3

Binder: GYKLK (also: flanked by G:S (3:1) linkers on peptide array) [GYKLK (SEQ ID NO: 78)]
- A (array MTG labeling signal with Z-Gln-Gly-CAD-biotin) [1]: 13.3

B1: microbial transglutaminase from Streptomyces mobaraensis (MTG) (protein)
chain: DSDDRVTPPAEPLDRMPDPYRPSYGRAETVVNNYIRKWQQVYSHRDGRKQQMTEEQREWLSYGCVGVTWVNSGQYPTNRLAFASFDEDRFKNELKNGRPRSGETRAEFEGRVAKESFDEEKGFQRAREVASVMNRALENAHDESAYLDNLKKELANGNDALRNEDARSPFYSALRNTPSFKERNGGNHDPSRMKAVIYSKHFWSGQDRSSSADKRKYGDPDAFRPAPGTGLVDMSRDRNIPRSPTSPGEGFVNFDYGWFGAQTEADADKTVWTHGNHYHAPNGSLGAMHVYESKFRNWSEGYSDFDRGAYVITFIPKSWNTAPDKVKQGWP
- KM (GLDH-coupled MTG activity assay, 100 µM Z-GGGDYALQGGGG as amine acceptor) [2]: 66.8 µM
- Vmax (GLDH-coupled MTG activity assay, 100 µM Z-GGGDYALQGGGG as amine acceptor) [2]: 5.1 pmol/s
- difference in MTG catalytic efficiency against GGGDEKPDGGGG (SEQ ID NO: 81) [2]: an apparent difference in MTG catalytic efficiency of at least 10-fold was observed
- kcat (GLDH-coupled MTG activity assay, 100 µM Z-GGGDYALQGGGG as amine acceptor) [2]: 0.066 s⁻¹
- kcat/KM (GLDH-coupled MTG activity assay, 100 µM Z-GGGDYALQGGGG as amine acceptor) [2]: 990 M⁻¹ s⁻¹
- stated: almost no MTG turnover (rate of NADH oxidation, GLDH-coupled assay, 100 uM Z-GGGDYALQGGGG as amine acceptor) [3]: filled circles: rate stays at about 0 pmol/s from 0 to 200 uM and reaches only about 0.2 pmol/s at 500 uM
- KM (GLDH-coupled MTG activity assay) [4]: 970 µM
- Vmax (GLDH-coupled MTG activity assay) [4]: 0.46 nmol/s
- difference in MTG catalytic efficiency against standard QG-substrate [4]: a difference in MTG catalytic efficiency of at least 3-fold
- kcat (GLDH-coupled MTG activity assay) [4]: 6 s⁻¹
- kcat/KM (GLDH-coupled MTG activity assay) [4]: 6200 M⁻¹ s⁻¹

Binder: QRTKL (also: flanked by G:S (3:1) linkers on peptide array) [QRTKL (SEQ ID NO: 77)]
- A (array MTG labeling signal with Z-Gln-Gly-CAD-biotin) [1]: 13.3

Binder: RAKYK (also: flanked by G:S (3:1) linkers on peptide array) [RAKYK (SEQ ID NO: 70)]
- A (array MTG labeling signal with Z-Gln-Gly-CAD-biotin) [1]: 13.3

Binder: NRTKL (also: flanked by G:S (3:1) linkers on peptide array) [NRTKL (SEQ ID NO: 76)]
- A (array MTG labeling signal with Z-Gln-Gly-CAD-biotin) [1]: 13.3

Binder: QRSKL (also: flanked by G:S (3:1) linkers on peptide array) [QRSKL (SEQ ID NO: 73)]
- A (array MTG labeling signal with Z-Gln-Gly-CAD-biotin) [1]: 13.3

Binder: KLGAK (also: flanked by G:S (3:1) linkers on peptide array) [KLGAK (SEQ ID NO: 72)]
- A (array MTG labeling signal with Z-Gln-Gly-CAD-biotin) [1]: 13.3
